Reference: publication PMC9482650, “Quantitative fragmentomics allow affinity mapping of interactomes” (Nature Communications, 2022)

T1: DLG3_1, Q92796
T1 sequence (Q92796 125-227, limits assumed, looked up): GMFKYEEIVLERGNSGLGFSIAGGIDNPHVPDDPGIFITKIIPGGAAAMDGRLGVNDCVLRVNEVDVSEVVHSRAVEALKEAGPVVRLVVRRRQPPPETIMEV

T2: DLG3_3, Q92796
T2 sequence (Q92796 374-475, limits assumed, looked up): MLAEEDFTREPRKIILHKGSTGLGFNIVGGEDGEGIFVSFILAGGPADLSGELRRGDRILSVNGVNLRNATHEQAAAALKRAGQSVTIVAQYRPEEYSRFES

T3: DVL3, Q92997
T3 sequence (Q92997 244-331, limits assumed, looked up): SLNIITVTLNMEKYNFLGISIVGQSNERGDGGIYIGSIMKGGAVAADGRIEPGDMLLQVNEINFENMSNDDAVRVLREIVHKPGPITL

T4: LIN7A, O14910
T4 sequence (O14910 103-200, limits assumed, looked up): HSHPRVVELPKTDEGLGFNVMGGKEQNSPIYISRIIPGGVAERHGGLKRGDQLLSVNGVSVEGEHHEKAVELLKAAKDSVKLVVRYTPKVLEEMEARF

T5: LIN7B, Q9HAP6
T5 sequence (Q9HAP6 88-185, limits assumed, looked up): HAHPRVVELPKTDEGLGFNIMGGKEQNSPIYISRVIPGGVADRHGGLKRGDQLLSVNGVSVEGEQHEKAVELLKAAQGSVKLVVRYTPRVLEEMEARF

T6: MPDZ_12, O75970
T6 sequence (O75970 1857-1958, limits assumed, looked up): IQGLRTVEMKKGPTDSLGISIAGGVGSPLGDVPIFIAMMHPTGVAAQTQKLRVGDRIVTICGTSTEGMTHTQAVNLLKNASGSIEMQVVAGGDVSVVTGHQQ

T7: PCLO, Q9Y6V0
T7 sequence (Q9Y6V0 4491-4600, limits assumed, looked up): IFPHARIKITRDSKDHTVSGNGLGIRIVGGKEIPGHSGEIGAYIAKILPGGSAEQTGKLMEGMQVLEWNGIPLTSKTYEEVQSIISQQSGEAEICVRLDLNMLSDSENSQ

T8: PTPN13_1, Q12923
T8 sequence (Q12923 1088-1188, limits assumed, looked up): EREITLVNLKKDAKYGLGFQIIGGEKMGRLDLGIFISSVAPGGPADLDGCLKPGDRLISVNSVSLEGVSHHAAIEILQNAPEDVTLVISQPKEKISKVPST

T9: SHANK1, Q9Y566
T9 sequence (Q9Y566 658-767, limits assumed, looked up): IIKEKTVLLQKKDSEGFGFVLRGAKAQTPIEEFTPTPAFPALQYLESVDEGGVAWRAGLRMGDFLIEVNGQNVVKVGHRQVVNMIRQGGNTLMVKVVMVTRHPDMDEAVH

T10: TX1BP3, O14907
T10 sequence (O14907 10-122, limits assumed, looked up): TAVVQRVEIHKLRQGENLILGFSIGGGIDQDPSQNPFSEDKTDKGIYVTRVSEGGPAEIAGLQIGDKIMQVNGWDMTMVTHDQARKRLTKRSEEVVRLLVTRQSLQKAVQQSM


Experiments:
Experiment in all cases: holdup assay
Set-up in all cases: key: below the threshold = too weak to quantify, mostly under pKd 3.1 to 4
Conditions in all cases: plain residues with an end cap or a label only (N-terminal biotin on a linker: ado-ado)
ARHGEF12, Q9NZN5-2 = biological target: ARHGEF12, Q9NZN5-2
DLG1_2, Q12959 = biological target: DLG1_2, Q12959
DLG3_1, Q92796 = biological target: T1, DLG3_1, Q92796
DLG3_3, Q92796 = biological target: T2, DLG3_3, Q92796
DLG5_1, Q8TDM6 = biological target: DLG5_1, Q8TDM6
DVL3, Q92997 = biological target: T3, DVL3, Q92997
FRMPD2_1, Q68DX3 = biological target: FRMPD2_1, Q68DX3
GOPC, Q9HD26 = biological target: GOPC, Q9HD26
GORASP2, Q9H8Y8 = biological target: GORASP2, Q9H8Y8
GRASP, Q7Z6J2 = biological target: GRASP, Q7Z6J2
GRID2IP_1, A4D2P6 = biological target: GRID2IP_1, A4D2P6
Inadl_1, Q8NI35 = biological target: Inadl_1, Q8NI35
Inadl_10, Q8NI35 = biological target: Inadl_10, Q8NI35
Inadl_5, Q8NI35 = biological target: Inadl_5, Q8NI35
Inadl_9, Q8NI35 = biological target: Inadl_9, Q8NI35
LIN7A, O14910 = biological target: T4, LIN7A, O14910
LIN7B, Q9HAP6 = biological target: T5, LIN7B, Q9HAP6
LNX1_1, Q8TBB1 = biological target: LNX1_1, Q8TBB1
MAGI2_2, Q86UL8 = biological target: MAGI2_2, Q86UL8
MAGI2_6, Q86UL8 = biological target: MAGI2_6, Q86UL8
MAST2, Q6P0Q8 = biological target: MAST2, Q6P0Q8
MPDZ_12, O75970 = biological target: T6, MPDZ_12, O75970
NHERF2_2, Q15599 = biological target: NHERF2_2, Q15599
NHERF4_4, Q86UT5 = biological target: NHERF4_4, Q86UT5
PCLO, Q9Y6V0 = biological target: T7, PCLO, Q9Y6V0
PTPN13_1, Q12923 = biological target: T8, PTPN13_1, Q12923
SHANK1, Q9Y566 = biological target: T9, SHANK1, Q9Y566
TX1BP3, O14907 = biological target: T10, TX1BP3, O14907

DLG5_1, Q8TDM6, sequence (Q8TDM6 617-713): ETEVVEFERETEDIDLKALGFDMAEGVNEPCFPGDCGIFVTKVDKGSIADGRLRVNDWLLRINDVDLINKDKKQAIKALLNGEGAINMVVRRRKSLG
GRASP, Q7Z6J2, sequence (Q7Z6J2 96-193): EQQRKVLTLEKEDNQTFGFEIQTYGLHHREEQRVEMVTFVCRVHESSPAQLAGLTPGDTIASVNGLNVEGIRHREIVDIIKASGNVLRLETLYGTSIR
Inadl_9, Q8NI35, sequence (Q8NI35 1530-1615): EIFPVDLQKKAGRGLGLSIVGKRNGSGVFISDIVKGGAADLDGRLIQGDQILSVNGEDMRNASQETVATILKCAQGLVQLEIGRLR
MAST2, Q6P0Q8, sequence (Q6P0Q8 1099-1202): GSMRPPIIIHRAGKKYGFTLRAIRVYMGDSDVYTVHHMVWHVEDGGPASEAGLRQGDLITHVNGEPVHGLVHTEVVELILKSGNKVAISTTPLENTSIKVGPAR
LNX1_1, Q8TBB1, sequence (Q8TBB1 261-371): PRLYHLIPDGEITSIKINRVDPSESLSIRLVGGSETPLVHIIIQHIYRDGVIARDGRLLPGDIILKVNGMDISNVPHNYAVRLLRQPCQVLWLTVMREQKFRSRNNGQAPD
FRMPD2_1, Q68DX3, sequence (Q68DX3 770-861): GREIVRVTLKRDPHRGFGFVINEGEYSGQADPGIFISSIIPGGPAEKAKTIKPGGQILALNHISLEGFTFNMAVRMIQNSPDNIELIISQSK
Inadl_1, Q8NI35, sequence (Q8NI35 113-229): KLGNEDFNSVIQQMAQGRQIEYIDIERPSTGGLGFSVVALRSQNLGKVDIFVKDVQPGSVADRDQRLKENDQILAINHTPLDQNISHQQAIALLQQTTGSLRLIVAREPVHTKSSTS
ARHGEF12, Q9NZN5-2, sequence (Q9NZN5 other isoform, or with tags, fused parts or gaps): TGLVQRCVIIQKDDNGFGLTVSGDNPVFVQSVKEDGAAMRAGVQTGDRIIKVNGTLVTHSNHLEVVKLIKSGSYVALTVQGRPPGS
GRID2IP_1, A4D2P6, sequence (A4D2P6 1-87): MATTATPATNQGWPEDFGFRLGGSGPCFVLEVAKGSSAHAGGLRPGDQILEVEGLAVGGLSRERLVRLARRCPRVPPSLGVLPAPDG
MAGI2_2, Q86UL8, sequence (Q86UL8 410-522): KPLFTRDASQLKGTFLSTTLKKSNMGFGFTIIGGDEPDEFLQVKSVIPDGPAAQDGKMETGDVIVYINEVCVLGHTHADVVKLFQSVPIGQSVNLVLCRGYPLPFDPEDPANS
NHERF2_2, Q15599, sequence (Q15599 142-238): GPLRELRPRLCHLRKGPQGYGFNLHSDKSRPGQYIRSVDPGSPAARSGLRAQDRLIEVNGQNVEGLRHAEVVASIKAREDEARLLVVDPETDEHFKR
Inadl_10, Q8NI35, sequence (Q8NI35 1673-1763): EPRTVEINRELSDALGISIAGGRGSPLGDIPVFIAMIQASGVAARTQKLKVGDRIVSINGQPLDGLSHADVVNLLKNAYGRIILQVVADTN
Inadl_5, Q8NI35, sequence (Q8NI35 673-780): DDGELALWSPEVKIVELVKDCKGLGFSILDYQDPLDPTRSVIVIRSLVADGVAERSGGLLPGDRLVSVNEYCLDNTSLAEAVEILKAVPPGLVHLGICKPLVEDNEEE
NHERF4_4, Q86UT5, sequence (Q86UT5 464-550): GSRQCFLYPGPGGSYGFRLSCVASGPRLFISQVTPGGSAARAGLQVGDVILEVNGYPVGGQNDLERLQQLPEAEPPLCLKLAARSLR
DLG1_2, Q12959, sequence (Q12959 314-412): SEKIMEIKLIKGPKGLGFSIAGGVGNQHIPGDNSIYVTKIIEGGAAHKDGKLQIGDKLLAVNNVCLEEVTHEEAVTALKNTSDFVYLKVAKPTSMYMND
MAGI2_6, Q86UL8, sequence (Q86UL8 1141-1229): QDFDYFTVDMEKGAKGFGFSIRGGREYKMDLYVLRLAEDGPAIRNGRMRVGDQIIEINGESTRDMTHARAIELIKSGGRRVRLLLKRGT

Binder	pKd (ARHGEF12, Q9NZN5-2)	pKd (DLG1_2, Q12959)	pKd (DLG3_1, Q92796)	pKd (DLG3_3, Q92796)	pKd (DLG5_1, Q8TDM6)	pKd (DVL3, Q92997)	pKd (FRMPD2_1, Q68DX3)	pKd (GOPC, Q9HD26)	pKd (GORASP2, Q9H8Y8)	pKd (GRASP, Q7Z6J2)	pKd (GRID2IP_1, A4D2P6)	pKd (Inadl_1, Q8NI35)	pKd (Inadl_10, Q8NI35)	pKd (Inadl_5, Q8NI35)	pKd (Inadl_9, Q8NI35)	pKd (LIN7A, O14910)	pKd (LIN7B, Q9HAP6)	pKd (LNX1_1, Q8TBB1)	pKd (MAGI2_2, Q86UL8)	pKd (MAGI2_6, Q86UL8)	further results
ADEMICITTL [CACNA1D, Q01668]	6.18	4.06	3.56	below the threshold	below the threshold	below the threshold	below the threshold	4.88	4.05	5.41	below the threshold	4.33	4.42	below the threshold	below the threshold	below the threshold	3.95	4.48	below the threshold	4.85	pKd (MAST2, Q6P0Q8): 5.76; pKd (MPDZ_12, O75970): 4.02; pKd (NHERF2_2, Q15599): 4.63; pKd (NHERF4_4, Q86UT5): 3.73; pKd (PCLO, Q9Y6V0): below the threshold; pKd (PTPN13_1, Q12923): below the threshold; pKd (SHANK1, Q9Y566): 5.28; pKd (TX1BP3, O14907): 3.87
TKDKVQETQI [LRRC4, Q9HBW1]	4.57	5.03	3.81	3.98	below the threshold	below the threshold	below the threshold	4.47	3.57	below the threshold	below the threshold	below the threshold	below the threshold	below the threshold	below the threshold	3.51	3.74	3.99	4.25	3.97	pKd (MAST2, Q6P0Q8): 5.52; pKd (MPDZ_12, O75970): below the threshold; pKd (NHERF2_2, Q15599): 4.11; pKd (NHERF4_4, Q86UT5): 3.95; pKd (PCLO, Q9Y6V0): below the threshold; pKd (PTPN13_1, Q12923): below the threshold; pKd (SHANK1, Q9Y566): 3.76; pKd (TX1BP3, O14907): 4.28

The next lines start with results.

pKd (ARHGEF12, Q9NZN5-2)	pKd (DLG1_2, Q12959)	pKd (DLG3_1, Q92796)	pKd (DLG3_3, Q92796)	pKd (DLG5_1, Q8TDM6)	pKd (DVL3, Q92997)	pKd (FRMPD2_1, Q68DX3)	pKd (GOPC, Q9HD26)	pKd (GORASP2, Q9H8Y8)	pKd (GRASP, Q7Z6J2)	pKd (GRID2IP_1, A4D2P6)	pKd (Inadl_1, Q8NI35)	pKd (Inadl_10, Q8NI35)	pKd (Inadl_5, Q8NI35)	pKd (Inadl_9, Q8NI35)	pKd (LIN7A, O14910)	pKd (LIN7B, Q9HAP6)	pKd (LNX1_1, Q8TBB1)	pKd (MAGI2_2, Q86UL8)	pKd (MAGI2_6, Q86UL8)	Binder	further results
below the threshold	below the threshold	below the threshold	below the threshold	below the threshold	below the threshold	below the threshold	below the threshold	4.31	below the threshold	below the threshold	below the threshold	below the threshold	below the threshold	below the threshold	below the threshold	3.69	below the threshold	below the threshold	below the threshold	MLPANYVEAI [NEB, P20929]	pKd (MAST2, Q6P0Q8): below the threshold; pKd (MPDZ_12, O75970): below the threshold; pKd (NHERF2_2, Q15599): below the threshold; pKd (NHERF4_4, Q86UT5): below the threshold; pKd (PCLO, Q9Y6V0): below the threshold; pKd (PTPN13_1, Q12923): below the threshold; pKd (SHANK1, Q9Y566): below the threshold; pKd (TX1BP3, O14907): below the threshold
below the threshold	3.78	below the threshold	below the threshold	below the threshold	below the threshold	below the threshold	below the threshold	below the threshold	below the threshold	below the threshold	below the threshold	below the threshold	below the threshold	below the threshold	below the threshold	below the threshold	below the threshold	3.64	below the threshold	PGKKPEDSRV [SLCO2B1, O94956]	pKd (MAST2, Q6P0Q8): 4.27; pKd (MPDZ_12, O75970): below the threshold; pKd (NHERF2_2, Q15599): 3.47; pKd (NHERF4_4, Q86UT5): below the threshold; pKd (PCLO, Q9Y6V0): below the threshold; pKd (PTPN13_1, Q12923): below the threshold; pKd (SHANK1, Q9Y566): below the threshold; pKd (TX1BP3, O14907): 3.54
